# Measurements published in patent publication US20250011363A1, “OPTIMIZED SHORTENED PEPTIDE THAT BINDS TO ACETYLCHOLINE RECEPTOR, AND USE THEREOF” (SKINMED CO., LTD., priority 2021, published 2025).
# Target: acetylcholine receptor
# Test: SPR, peptide at 10 uM on immobilized AchR
row,Binder,Binding affinity (RU)
1,RATIKR [6mer-2-999],31
2,KCHDKK [6mer-2-1000],41
3,RKKFKK [6mer-2-1001],37
4,RCNDKR [6mer-2-1002],42
5,KPEWKR [6mer-2-1003],42
6,RDTHKR [6mer-2-1004],38
7,RFKARR [6mer-2-1005],23
8,RATMRR [6mer-2-1006],30
9,RHTNKK [6mer-2-1007],42
10,RAWKKR [6mer-2-1008],38
11,KINPRK [6mer-2-1009],34
12,RANHKK [6mer-2-1010],36
13,RAEFRR [6mer-2-1011],22
14,KASAKK [6mer-2-1012],30
15,KPPDKR [6mer-2-1013],23
16,RPPMRR [6mer-2-1014],34

# Target: acetylcholine receptor
# Test: SPR, receptor immobilised on chip, peptide at 10 uM
row,Binder,Binding affinity (RU)
1,RASHRR [6mer-2-937],35
2,RIEHKR [6mer-2-938],40
3,KKCARR [6mer-2-939],22
4,RNENKK [6mer-2-940],41
5,RDEDKR [6mer-2-941],33
6,KTDKRK [6mer-2-942],22
7,KIDHRR [6mer-2-943],41
8,KPEDKK [6mer-2-944],35
9,KKCERK [6mer-2-945],42
10,KPCEKK [6mer-2-946],21
11,KTNWRK [6mer-2-947],41
12,RPPFRR [6mer-2-948],28
13,RPNARR [6mer-2-949],39
14,KYNKRR [6mer-2-950],26
15,RADEKK [6mer-2-951],42
16,KYWGRR [6mer-2-952],24
17,KESVKK [6mer-2-953],25
18,KCTIRK [6mer-2-954],32
19,RMPERR [6mer-2-955],29
20,KFCWRR [6mer-2-956],28
21,RDTHRR [6mer-2-957],40

row,Binder,Binding affinity (RU)
1,KFKARK [6mer-2-958],28
2,RTNARK [6mer-2-959],35
3,RDCVKR [6mer-2-960],29
4,KNTKKR [6mer-2-961],21
5,KKSNRK [6mer-2-962],30
6,KAKHRR [6mer-2-963],37
7,KCEDRK [6mer-2-964],41
8,KPWFKR [6mer-2-965],36
9,KEDAKR [6mer-2-966],41
10,RTSNKK [6mer-2-967],35
11,RHWEKK [6mer-2-968],39
12,KATHKR [6mer-2-969],33
13,KDDVRR [6mer-2-970],27
14,KEMFRK [6mer-2-971],29
15,KAMFRR [6mer-2-972],38
16,KCPIKK [6mer-2-973],41
17,RFDDRR [6mer-2-974],38
18,KKTMKK [6mer-2-975],38
19,RTTGKK [6mer-2-976],26
20,REMKRK [6mer-2-977],30
21,KEPHRR [6mer-2-978],28

row,Binder,Binding affinity (RU)
1,KKAFKK [6mer-2-979],22
2,KESGKR [6mer-2-980],34
3,RCEIRK [6mer-2-981],32
4,RMHAKK [6mer-2-982],38
5,RTWHRR [6mer-2-983],37
6,KDMWKK [6mer-2-984],43
7,REMNKR [6mer-2-985],34
8,KNWARR [6mer-2-986],27
9,RCHPKK [6mer-2-987],22
10,KMCEKK [6mer-2-988],41
11,KAHNKR [6mer-2-989],22
12,RKKMKR [6mer-2-990],41
13,KCHFRR [6mer-2-991],30
14,RMHFRR [6mer-2-992],33
15,RHDVKK [6mer-2-993],29
16,KYCIKK [6mer-2-994],41
17,KFWEKK [6mer-2-995],38
18,RHDARK [6mer-2-996],40
19,KISFKK [6mer-2-997],30
20,KEMWKK [6mer-2-998],43
